Measurements published in the supplement of paper PMC7877785.
± gives the uncertainty stated by the source.

Test: self-splicing fitness, log relative to wild type (ln ratio); higher = more splicing; Tetrahymena group I intron in knt gene, E. coli kanamycin selection, DiMSum; sequences stand for … in CUCUCU…GGAGGGAAAAGUUAUCAGGCAUGCACCUGGUAGCUAGUCUUUAAACCAAUAGAUUGCAUCGGUUUAAAAGGCAAGACCGUCAAAUUGCGGGAAAGGGGUCAACAGCCGUUCAGUACCAAGUCUCAGGGGAAACUUUGAGAUGGCCUUGCAAAGGGUAUGGUAAUAAGCUGACGGACAUGGUCCUAACCACGCAGCCAAGUCCUAAGUCAACAGAUCUUCUGUUGAUAUGGAUGCAGUUCACAGACUAAAUGUCGGUCGGGGAAGAUGUAUUCUUCUCAUAAGAUAUAGUCGGACCUCUCCUUAAUGGGAGCUAGCGGAUGAAGUGAUGCAACACUGGAGCCGCUGGGAACUAAUUUGUAUGCGAAAGUAUAUUGAUUAGUUUUGGAGUACUCGUGGUCG
Outline: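 The eight P1ex-region nucleotides of an intron in the knt kanamycin-resistance gene on pET-22b(+) were all randomised and the library put into E. coli BL21(DE3). Six replicate transformations were grown overnight at 37°C or 30°C on LB agar with or without 25 μg/mL kanamycin, together with 100 μg/mL carbenicillin, 50 μM IPTG and 0.2% rhamnose. Colonies were pooled and amplicon-sequenced on an Illumina HiSeq 2500. Fitness from DiMSum is the error-weighted combination of wild-type-normalised replicate fold changes, kanamycin over none.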

Sequence	self-splicing fitness (ln) (30 °C)	self-splicing fitness (ln) (37 °C)
GGUAAGCAAUAUUACGUCUU	-0.148 ± 0.1	-0.802 ± 0.12
GGUAAGCAAUAUUACGUUAG	-3.15 ± 0.18	-1.72 ± 0.19
GGUCAGCAAUAUUACGAAGC	-0.892 ± 0.11	-0.0665 ± 0.13
GGUCAGCAAUAUUACGACGC	-0.817 ± 0.13	-0.318 ± 0.18
GGUCAGCAAUAUUACGAGCG	0.269 ± 0.081	-0.0123 ± 0.094
GGUCAGCAAUAUUACGAGGG		-2.35 ± 0.25
GGUCAGCAAUAUUACGAGUG	-2.56 ± 0.1	-1.44 ± 0.11
GGUCAGCAAUAUUACGAUUU	0.377 ± 0.062	0.21 ± 0.088
GGUCAGCAAUAUUACGCAGG		-3.55 ± 0.3
GGUCAGCAAUAUUACGCCGU	-2.61 ± 0.16	-0.39 ± 0.15
GGUCAGCAAUAUUACGCUAG	-3.43 ± 0.26	-2.91 ± 0.34
GGUCAGCAAUAUUACGCUCA	-1.15 ± 0.12	-0.0519 ± 0.17
GGUCAGCAAUAUUACGGACA	-0.754 ± 0.19	-0.179 ± 0.17
GGUCAGCAAUAUUACGGGUC	-1.54 ± 0.13	-1.58 ± 0.16
GGUCAGCAAUAUUACGGUGA	-0.695 ± 0.074	-1 ± 0.11
GGUCAGCAAUAUUACGUCAC		-1.77 ± 0.39
GGUCAGCAAUAUUACGUCCU	-2.63 ± 0.31	-1.85 ± 0.29
GGUCAGCAAUAUUACGUGGU	-2.54 ± 0.18	-2.17 ± 0.23
GGUCAGCAAUAUUACGUUUU	-0.899 ± 0.073	-0.202 ± 0.078
GGUGAGCAAUAUUACGAAAU	-2.21 ± 0.31	-2.78 ± 0.38
GGUGAGCAAUAUUACGAAUC		-2.04 ± 0.4
GGUGAGCAAUAUUACGACUC	-1.13 ± 0.15	-0.634 ± 0.22
GGUGAGCAAUAUUACGAGGC		-0.336 ± 0.33
GGUGAGCAAUAUUACGAGUU	-2.39 ± 0.27	-0.657 ± 0.16
GGUGAGCAAUAUUACGAUCU	-0.331 ± 0.18	-0.809 ± 0.27

Sequence	self-splicing fitness (ln) (30 °C)	self-splicing fitness (ln) (37 °C)
GGUGAGCAAUAUUACGCAAG		0.418 ± 0.23
GGUGAGCAAUAUUACGCAGA	-2.51 ± 0.31	-2.52 ± 0.33
GGUGAGCAAUAUUACGCUUC		-2.51 ± 0.39
GGUGAGCAAUAUUACGGGCU	-2.81 ± 0.19	-2.67 ± 0.44
GGUGAGCAAUAUUACGGGGC		-1.01 ± 0.32
GGUGAGCAAUAUUACGUACG	-0.28 ± 0.23	-0.434 ± 0.25
GGUGAGCAAUAUUACGUAUA	-3.76 ± 0.29	-3.25 ± 0.37
GGUGAGCAAUAUUACGUCCA	-2.91 ± 0.24	-2.07 ± 0.096
GGUGAGCAAUAUUACGUGAG	-2.73 ± 0.19	-1.76 ± 0.21
GGUGAGCAAUAUUACGUGCA	-0.986 ± 0.12	-0.496 ± 0.14
GGUGAGCAAUAUUACGUGUC	-3.03 ± 0.26	-1.99 ± 0.32
GGUGAGCAAUAUUACGUUAC	-3.12 ± 0.47	-0.718 ± 0.24
GGUUAGCAAUAUUACGACGA	-1.15 ± 0.18	0.349 ± 0.21
GGUUAGCAAUAUUACGAGCU	-2.61 ± 0.29	-1.69 ± 0.32
GGUUAGCAAUAUUACGAUAC	-0.314 ± 0.22	-0.0363 ± 0.19
GGUUAGCAAUAUUACGAUAU	-0.423 ± 0.1	-0.137 ± 0.13
GGUUAGCAAUAUUACGCAUA	-0.622 ± 0.12	-0.182 ± 0.14
GGUUAGCAAUAUUACGCCAA	-1.42 ± 0.34	-2.43 ± 0.33
GGUUAGCAAUAUUACGCGGA	-1.4 ± 0.31	-1.34 ± 0.23
GGUUAGCAAUAUUACGGAAU	-2.21 ± 0.25	-1.01 ± 0.25
GGUUAGCAAUAUUACGGGCC	-2.52 ± 0.27	-1.47 ± 0.29
GGUUAGCAAUAUUACGGGGA	-2.05 ± 0.25	-2.49 ± 0.29
GGUUAGCAAUAUUACGGUCU	-0.263 ± 0.12	0.162 ± 0.15
GGUUAGCAAUAUUACGGUGA	-1.49 ± 0.13	-0.0195 ± 0.13
GGUUAGCAAUAUUACGGUUC	-0.571 ± 0.086	-0.114 ± 0.11

Sequence	self-splicing fitness (ln) (30 °C)	self-splicing fitness (ln) (37 °C)
GGUUAGCAAUAUUACGUACG	-0.392 ± 0.14	0.0535 ± 0.18
GGUUAGCAAUAUUACGUAUG	-3.18 ± 0.17	-0.52 ± 0.15
GGUUAGCAAUAUUACGUCCU	-1.2 ± 0.12	-0.367 ± 0.12
GGUUAGCAAUAUUACGUUUC	-3.04 ± 0.21	-0.645 ± 0.18
GUAAAGCAAUAUUACGACUU	0.245 ± 0.1	0.464 ± 0.12
GUAAAGCAAUAUUACGAGUA	-1.11 ± 0.12	-0.624 ± 0.14
GUAAAGCAAUAUUACGCAUA	-1.1 ± 0.098	-0.728 ± 0.11
GUAAAGCAAUAUUACGCCCU	0.35 ± 0.081	0.185 ± 0.081
GUAAAGCAAUAUUACGCUAC	-4.2 ± 0.32	-1.87 ± 0.37
GUAAAGCAAUAUUACGCUUG	-2.17 ± 0.15	-1.12 ± 0.17
GUAAAGCAAUAUUACGGACC	-1.15 ± 0.13	-0.652 ± 0.24
GUAAAGCAAUAUUACGGAGC	-2.47 ± 0.2	-1.71 ± 0.21
GUAAAGCAAUAUUACGGAUA	-2.72 ± 0.16	-0.67 ± 0.12
GUAAAGCAAUAUUACGGCGA	-0.00421 ± 0.11	-0.231 ± 0.17
GUAAAGCAAUAUUACGGGGU	-3.02 ± 0.19	-2.25 ± 0.21
GUAAAGCAAUAUUACGGUAC	-1.61 ± 0.12	-1.26 ± 0.18
GUAAAGCAAUAUUACGGUAG	-0.977 ± 0.054	-1.37 ± 0.099
GUAAAGCAAUAUUACGUCAC	-2.16 ± 0.096	-1.56 ± 0.12
GUAAAGCAAUAUUACGUCCA	-0.574 ± 0.088	0.0855 ± 0.12
GUAAAGCAAUAUUACGUGGG	-3.28 ± 0.18	-2.91 ± 0.14
GUAAAGCAAUAUUACGUGUG	-1.34 ± 0.063	-1 ± 0.088
GUACAGCAAUAUUACGAAGA	-2.52 ± 0.32	-1.83 ± 0.28
GUACAGCAAUAUUACGAAUG	-3.54 ± 0.25	-0.988 ± 0.18
GUACAGCAAUAUUACGACGC	-0.428 ± 0.092	-0.206 ± 0.1
GUACAGCAAUAUUACGAGAC	-2.09 ± 0.24	-2.5 ± 0.28

Sequence	self-splicing fitness (ln) (30 °C)	self-splicing fitness (ln) (37 °C)
GUACAGCAAUAUUACGAGGG	-3.21 ± 0.17	-2.42 ± 0.2
GUACAGCAAUAUUACGAUCG	-1.67 ± 0.12	-0.932 ± 0.16
GUACAGCAAUAUUACGCACU	-0.597 ± 0.13	-1.16 ± 0.24
GUACAGCAAUAUUACGCAGG	-3.44 ± 0.23	-1.93 ± 0.19
GUACAGCAAUAUUACGCAUA	-2.65 ± 0.15	-1.56 ± 0.11
GUACAGCAAUAUUACGCCCU	-1.64 ± 0.34	-0.525 ± 0.32
GUACAGCAAUAUUACGCUCA	-1.07 ± 0.091	-0.188 ± 0.11
GUACAGCAAUAUUACGGCUA	0.707 ± 0.15	0.282 ± 0.12
GUACAGCAAUAUUACGGGGA	-3.21 ± 0.25	-2.33 ± 0.19
GUACAGCAAUAUUACGGGUA	-2.08 ± 0.13	-1.93 ± 0.15
GUACAGCAAUAUUACGGUGA	-1.75 ± 0.14	-0.943 ± 0.12
GUACAGCAAUAUUACGGUGG	-2.22 ± 0.1	-1.63 ± 0.11
GUACAGCAAUAUUACGUACG	-4.18 ± 0.31	-2.2 ± 0.19
GUACAGCAAUAUUACGUAUG	-2.52 ± 0.086	-1.45 ± 0.091
GUACAGCAAUAUUACGUGAC	-2.8 ± 0.18	-0.577 ± 0.16
GUACAGCAAUAUUACGUGAU	-2.88 ± 0.07	-0.556 ± 0.07
GUACAGCAAUAUUACGUUAA	-2.28 ± 0.12	-1.98 ± 0.15
GUACAGCAAUAUUACGUUGU	-3.27 ± 0.15	-1.99 ± 0.15
GUAGAGCAAUAUUACGACCC	0.536 ± 0.15	0.745 ± 0.18
GUAGAGCAAUAUUACGAGAC	-3.02 ± 0.42	
GUAGAGCAAUAUUACGAGAU	-4.13 ± 0.23	-0.661 ± 0.16
GUAGAGCAAUAUUACGAUCA	-1.28 ± 0.23	-0.907 ± 0.24
GUAGAGCAAUAUUACGAUUC	-0.192 ± 0.1	0.716 ± 0.14
